# Measured values taken from the RNAGym collection of RNA variant scans (doi:10.1073/pnas.2313332121).
# This sample holds only a part of the variants without activity.
# B1: TPR 5TU (parent)
# chain: GGAUCUUCUCGAUCUAACAAAAAAGACAAAUCUGCCACAAAGCUUGAGAGCAUCUUCGGAUGCAGAGGCGGCAGCCUUCGGUGGCGCGAUAGCGCCAACGUUCUCAACUAUGACACGCAAAACGCGUGCUCCGUUGAAUGGAGUUUAUCAUG
# Variants of: B1
# Assay: polymerase ribozyme fitness, log enrichment relative to wild type (log ratio); higher = more active; in vitro selection for triplet polymerase activity
# Summary of the method: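 In triplicate, a single round of in vitro selection was run on each mutant library, PCR-built and transcribed, covering one subunit of a heterodimeric triplet polymerase ribozyme. Frozen incubation at −7 °C followed annealing with a biotinylated primer, partner subunit and triplets, and extended constructs were then gel-excised, streptavidin-captured and taken through RT-PCR. Fitness is the logarithm of genotype enrichment over wild-type enrichment, from inverse-variance-weighted replicate averages of Illumina-sequenced inputs and outputs. […] only genotypes with ≥10 input reads and ≥1 read per output were kept.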
row,Variant,polymerase ribozyme fitness (log ratio)
1,A17G C75U C95U,0.0451
2,A73G U148C,-2.55
3,C54U C95G,-1.07
4,A16U A39G A89C C95U G152C,≤ -4.2
5,C5U A23C A40C A49U G70C G94A,≤ -4.2
6,A39G A89G G92A G141C,-3.85
7,C93A A107U G126C A150G,≤ -4.2
8,U13G A40C C96G A119G,-1.98
9,A12U G59A C75G U127G,-4.12
10,A41C C87G G100C G126A A142C,≤ -4.2
11,A41C U53A U56A A66C C79G G84U,≤ -4.2
12,C10G A40U A64U C76G C85A G117U G136A G143A,≤ -4.2
13,A73G A106C U111A U144A,≤ -4.2
14,C35A U61A C103G U104C C116U,≤ -4.2
15,U15A A39C C123U A137C U151C,≤ -4.2
16,G11U A73U G81A G83C G86U G126C G136C,≤ -4.2
17,C93U C95U U102A A106G,-2.87
18,A17C G74C C87U G92C C105G G136U,≤ -4.2
19,U4A G11C A41U G50C G58A G59U U82C C87U G92U G140A,≤ -4.2
20,A47C A60U G80U C93U,≤ -4.2
21,A52G G86A,-0.796
22,A52U U82A C93A C131G,≤ -4.2
23,G11A A24G A60U U78C G92A G100A,≤ -4.2
24,G94C U101A G152A,-2.72

row,Variant,polymerase ribozyme fitness (log ratio)
1,A26U C51A C54A C57U U90C C93G,≤ -4.2
2,U56A C85U G128U,-2.89
3,U90G G140C,≤ -4.2
4,U55A A91U C96A C125G A142G,≤ -4.2
5,U4C A23G C85U A98U G117A A119U G141U,≤ -4.2
6,G68A G80A G86U U90G A91G G136A A142G,≤ -4.2
7,A49G C93A U134A U146G,≤ -4.2
8,G67C C93G C99G A137U U146A,≤ -4.2
9,A20C G25C G34U C54A A91G A119U A122U G124U C125G,≤ -4.2
10,G42C C43U A91U C93G,≤ -4.2
11,A12C G133C U145A,-1.11
12,A30G G48U C76G C96U A97C U134G,≤ -4.2
13,G58A C87U C108U A142C,-3.89
14,A17U A37G U82A U144A,-2.56
15,C96G G100U,-3.95
16,U53A A110C,≤ -4.2
17,G83U C96A,-0.528
18,A30G C93A,-3.95
19,G92U A97C,-0.00996
20,C54U U101G,-0.483
21,U6C C10G,-3.97
22,A89C C95U,-1.49
23,A20G A37G A106G A138C,-3.84
24,C43U C85A C87U G94C,≤ -4.2

row,Variant,polymerase ribozyme fitness (log ratio)
1,G83A G117C U145G,-1.38
2,U82A A107U,-2.79
3,G48C A49C A60G U61A A66G C87A,≤ -4.2
4,A17G A47C C87A G88C A91U U111A,≤ -4.2
5,A41C U56A C63A G83A,-0.629
6,A97U G141C U146G,-2.08
7,A19U A22C G94C C96G C123U G128A U139C U146C,≤ -4.2
8,A23U C93U G126U,≤ -4.2
9,C76U C85U,-2.03
10,A20C U90G C99U G136C,≤ -4.2
11,U31A U53A,-0.327
12,A19U G46U A52U,≤ -4.2
13,A19C C27U A29C A52C G86C A137G G143U,≤ -4.2
14,C14G A22U A26G A28C U134A,≤ -4.2
15,A3G U13G U144C,0.104
16,A24C A28U A41C U78G A122G U127A,≤ -4.2
17,U7G A41U C43U U82G G92U U146A,≤ -4.2
18,C8U C79G G84A G94C G136C A138G A150G,≤ -4.2
19,A30G A47U A64G G94A,-3.57
20,U55A U56A G59A,0.199
21,C72U A122G,-0.726
22,C5G C10U C76A C87U G92A,-2.35
23,C87U U148A,-3.62
24,G84A A89G,-1.6

row,Variant,polymerase ribozyme fitness (log ratio)
1,C10U A19G U33A C79U C93U,≤ -4.2
2,A30U A49G A52G G58C U78A A110U C123U A142C,≤ -4.2
3,G67A C72A A142U,≤ -4.2
4,A12C A20U U53C A89G,-3.96
5,A23C,-3.48
6,A16G A20G A120C,-1.84
7,U6A C8G A60C G62A C85A C103A,≤ -4.2
8,A17U A39G G50C A52C C96U C118U,≤ -4.2
9,A22G A106G A122C G124U,-0.81
10,U55A C76A C114U,-3.91
11,U78G C114U C125A C149U,≤ -4.2
12,U31A A66U G86U G100C,≤ -4.2
13,C5G U6C G50A,-2.74
14,G84U G86C C93G A98U A142U,-1.78
15,C18U A41G C85A U134A,-3.02
16,A16G C35G U53A C57U G84U C105G A150U,≤ -4.2
17,U45A A49C G84A,≤ -4.2
18,G83U A121C A142U,-1.46
19,C57A A113C A119U,-1.37
20,U9G C85A C103A C118G U134A,≤ -4.2
21,C5U C8U G58A A73G C114U A120G,-3.02
22,C27G G80A C114A C116U A142C,≤ -4.2
23,U4G A21G A52G G141A,-2.63
24,C93G G140C,≤ -4.2

row,Variant,polymerase ribozyme fitness (log ratio)
1,C14U G46A C54A C132A,≤ -4.2
2,G58A G92A C123G,-4.01
3,A22U A49U,-0.913
4,C10U A16G C43G U44G U77A U82A A120C,≤ -4.2
5,A21C U55A,-0.0725
6,A39U A60U G81A C85A C93U,≤ -4.2
7,U53G U55A U78A C93U A142C U148C,≤ -4.2
8,G50A G58C,-1.06
9,C27U G70A C87A,≤ -4.2
10,A37C A47U G58A U61G A91G A107C A113G A138U,≤ -4.2
11,A30U U61A G70C C96A U111G G140A,≤ -4.2
12,U9G C35U A52C U61A C87A U101C C125A,≤ -4.2
13,C5G G83A,-1.24
14,C32G A52C U61A G62C C63A C75U C93U,-4.14
15,C38U U55G C85A,-2.3
16,G62A U130G,-3.67
17,U61A A66C G74A U90G A91G G133U A138C,≤ -4.2
18,C85U G100U A121C G124A C125G G136A A142G G152U,≤ -4.2
19,G42C U55A G70C C96U,≤ -4.2
20,A49C U55A,≤ -4.2
21,G11A C85G G94U,-0.903
22,A19G A73G C85A,-1.82
23,A17G A60G C85G A89U,-2.31
24,G48U U55A C99U,-2.23

row,Variant,polymerase ribozyme fitness (log ratio)
1,A29C C51G C57G G92C A107C A110C G124A U145A U151G,≤ -4.2
2,C14G A17G C32U G81A G83C,≤ -4.2
3,A49U G80A,-3.76
4,A28C C35U G124A G141U,≤ -4.2
5,A23G C93U,-3.77
6,C10U U55A C72U,-3.95
7,G81A A91G C99G A120C,-4
8,U4G C8A U31A U55A C87U U101C G133C,≤ -4.2
9,U53A C85U,-1.4
10,C35U C54G A66U C79A G80A G83C G84A C96U U101G U148C,≤ -4.2
11,C5U U13A C14A U53A U55A C76A A120U G124C,≤ -4.2
12,A23U C96U,-4.1
13,C38U G50A U77C C87G,≤ -4.2
14,C27U C79U C87G U90C C96U A121U U134G,≤ -4.2
15,U61A G80A,-2.08
16,U31A G48C C85A,-2.98
17,U55G A110G,-2.87
18,C18A A21U A52G C54U G92A C103A,≤ -4.2
19,A12G G74C,-3.9
20,A24U A28C U33A G59A G140U U144G U146G,≤ -4.2
21,A40U C54U C85U C108U,≤ -4.2
22,C54U C75G G81C U127A,≤ -4.2
23,A26C C96A A120G G124U,-2.02
24,G25A A89U C95G,-4.2

row,Variant,polymerase ribozyme fitness (log ratio)
1,C10G C54U U56A G62U G94A C149U,≤ -4.2
2,G88C A89C C95U,≤ -4.2
3,C57G G58A A91G,-3.24
4,U55A G140U,-2.9
5,C10U C38U G80A G94C C125A G143A,≤ -4.2
6,C93U A115U A120G,-2.4
7,A29G U90G A122U A142U C149G,≤ -4.2
8,C35U U44A C54A C87U A110U,≤ -4.2
9,C27G U45A G48U A91C,≤ -4.2
10,C87U C93G A121U C132A,≤ -4.2
11,C8G G84U,≤ -4.2
12,A40C C51U C57A G94U C114G A150G,≤ -4.2
13,A37U G42A C85A A138G,≤ -4.2
14,A29U G46U G59A G70A A89U G117U U148A,≤ -4.2
15,A26U A39C U45A A60C U61G G83C U102C U111G,≤ -4.2
16,A60U C85A U101A A119G U127C,≤ -4.2
17,A49C G59A A60G A106G,≤ -4.2
18,A60C G81C C87A,≤ -4.2
19,A40G A47G U144G,-2.26
20,A12C G62A A122U,-0.923
21,A40G A47C C57U C85A A115U A119C A122G U144A,≤ -4.2
22,C8A U144C,-4.16
23,U77C C85A C108A U111C A113U,≤ -4.2
